Results taken from publication PMC6768103, “Functional and structural characterization of HspB1/Hsp27 from Chinese hamster ovary cells” (FEBS Open Bio, 2019).

T1: porcine heart citrate synthase (pig, UniProt P00889 28-464)
T1 construct: citrate synthase from porcine heart; Client protein; the complex with CgHspB1 appeared only after heating at 55 °C (heat-denatured CS); also called CS
T1 sequence (looked up): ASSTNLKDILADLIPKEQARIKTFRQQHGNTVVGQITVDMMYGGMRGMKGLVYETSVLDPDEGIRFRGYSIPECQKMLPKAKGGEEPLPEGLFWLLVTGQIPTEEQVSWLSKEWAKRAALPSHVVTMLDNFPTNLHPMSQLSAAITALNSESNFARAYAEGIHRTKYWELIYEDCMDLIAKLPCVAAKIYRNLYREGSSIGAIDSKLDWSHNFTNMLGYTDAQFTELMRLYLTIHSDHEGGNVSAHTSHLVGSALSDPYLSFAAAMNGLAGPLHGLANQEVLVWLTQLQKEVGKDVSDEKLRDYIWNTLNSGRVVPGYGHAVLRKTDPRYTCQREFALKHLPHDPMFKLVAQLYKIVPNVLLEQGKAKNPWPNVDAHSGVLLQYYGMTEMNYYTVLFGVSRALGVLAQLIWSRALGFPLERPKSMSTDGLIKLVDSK


Legend:
[1] = target: the molecule itself; test: SEC-MALS; TSKgel G3000XL column, buffer B (50 mM Tris/HCl pH 7.5, 0.1 mM EDTA, 150 mM NaCl), room temperature
[2] = target: T1, porcine heart citrate synthase; test: SEC; mixture of CgHspB1WT (30 µM) and CS incubated at 55 °C for 30 min, cooled to 25 °C and analysed at 25 °C; conditions: both partners purified
[3] = target: the molecule itself; test: SEC; SB-804HQ column on HPLC, buffer B with 20% ethylene glycol, 6 or 12 µM as monomer, heated 30 min at the specified temperature and run at the same temperature
[4] = target: the molecule itself; test: SEC; mixture of CgHspB1WT (30 µM) and IPMDH incubated at 25 and 55 °C for 30 min and analysed at the same temperature; the 55 °C mixture also cooled and analysed at 25 °C

Row | Binder | stoichiometry N [1] | binding result [2] | stoichiometry N [3] | stoichiometry N [4]
1 | wild‐type CgHspB1 (HspB1/Hsp27 from Chinese hamster ovary cells) (natural protein, Chinese hamster (Cricetulus griseus), UniProt A0A8C2QII0 1-213, looked up, HspB1/Hsp27 of Chinese hamster (Cricetulus griseus), full-length gene amplified from total cDNA of CHO cells; deduced subunit mass 23.4 kDa; 16-mer at room temperature by SEC-MALS; the oligomer varies with temperature and concentration; also called CgHspB1WT; HspB1 from CHO cells; source: E. coli BL21 Star (DE3) / BL21 (DE3), pET23b, purified (DEAE, RESOURCE Q, Superdex 200); copies: 16) MTERRVPFSLLRSPSWEPFRDWYPAHSRLFDQAFGVPRLPDEWSQWFSAAGWPGYVRPLPAATAEGPAAVALAAPLAAPAFHRALNRQLSSGVSEIRQTADRWRVSLDVNHFAPEELTVKTKEGVVEITGKHEERQDEHGYISRCFTRKYTLPPGVDPTLVSSSLSPEGTLTVEAPLPKTATQSAEITIPVTFEARAQIGGQEAGKSEQSGAK | 16 | binds | ~2 | 
2 | CgHspB1 with S15D mutation (natural protein, Chinese hamster (Cricetulus griseus), UniProt A0A8C2QII0 1-213, looked up, HspB1/Hsp27 of Chinese hamster (Cricetulus griseus), full-length gene from CHO cell cDNA, with S15D; Made by site-directed mutagenesis on pET23b-CgHspB1WT; also called CgHspB1S15D; CgHspBS15D; source: E. coli BL21 (DE3), pET23b, purified (DEAE, RESOURCE Q, Superdex 200)) MTERRVPFSLLRSPDWEPFRDWYPAHSRLFDQAFGVPRLPDEWSQWFSAAGWPGYVRPLPAATAEGPAAVALAAPLAAPAFHRALNRQLSSGVSEIRQTADRWRVSLDVNHFAPEELTVKTKEGVVEITGKHEERQDEHGYISRCFTRKYTLPPGVDPTLVSSSLSPEGTLTVEAPLPKTATQSAEITIPVTFEARAQIGGQEAGKSEQSGAK |  |  | ~2 | 
3 | isopropyl malate dehydrogenase from Thermus thermophilus HB8 (enzyme, UniProt Q5SIY4 1-345, looked up, isopropyl malate dehydrogenase (3-isopropylmalate dehydrogenase) from Thermus thermophilus HB8; also called IPMDH) MKVAVLPGDGIGPEVTEAALKVLRALDEAEGLGLAYEVFPFGGAAIDAFGEPFPEPTRKGVEEAEAVLLGSVGGPKWDGLPRKIRPETGLLSLRKSQDLFANLRPAKVFPGLERLSPLKEEIARGVDVLIVRELTGGIYFGEPRGMSEAEAWNTERYSKPEVERVARVAFEAARKRRKHVVSVDKANVLEVGEFWRKTVEEVGRGYPDVALEHQYVDAMAMHLVRSPARFDVVVTGNIFGDILSDLASVLPGSLGLLPSASLGRGTPVFEPVHGSAPDIAGKGIANPTAAILSAAMMLEHAFGLVELARKVEDAVAKALLETPPPDLGGSAGTEAFTATVLRHLA |  |  |  | 2
